Measured values reported in patent US20090291890A1 (published 2009).

Molecular target: Factor X (FX) (Homo sapiens (Human)) (UniProt P00742)
Sequence (P00742 41-488 limits assumed): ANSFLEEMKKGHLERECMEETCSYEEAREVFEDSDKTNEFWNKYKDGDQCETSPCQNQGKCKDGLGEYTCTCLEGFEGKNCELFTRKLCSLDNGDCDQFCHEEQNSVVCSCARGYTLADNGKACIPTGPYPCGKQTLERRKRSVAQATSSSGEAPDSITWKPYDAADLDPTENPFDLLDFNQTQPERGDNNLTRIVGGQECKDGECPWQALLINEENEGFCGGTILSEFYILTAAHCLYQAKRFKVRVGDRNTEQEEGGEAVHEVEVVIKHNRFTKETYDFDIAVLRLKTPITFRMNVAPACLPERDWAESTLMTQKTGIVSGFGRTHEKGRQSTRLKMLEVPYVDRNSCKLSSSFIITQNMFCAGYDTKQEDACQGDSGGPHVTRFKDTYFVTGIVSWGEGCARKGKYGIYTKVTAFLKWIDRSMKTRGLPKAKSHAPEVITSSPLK

| Binder | kcat/KM, TF-Dependent Indirect Assay |
| --- | --- |
| FVIIa variant H373F (enzyme) ANAFLEELRPGSLERECKEEQCSFEEAREIFKDAERTKLFWISYSDGDQCASSPCQNGGSCKDQLQSYICFCLPAFEGRNCETHKDDQLICVNENGGCEQYCSDHTGTKRSCRCHEGYSLLADGVSCTPTVEYPCGKIPILEKRNASKPQGRIVGGKVCPKGECPWQVLLLVNGAQLCGGTLINTIWVVSAAHCFDKIKNWRNLIAVLGEHDLSEHDGDEQSRRVAQVIIPSTYVPGTTNHDIALLRLHQPVVLTDHVVPLCLPERTFSERTLAFVRFSLVSGWGQLLDRGATALELMVLNVPRLMTQDCLQQSRKVGDSPNITEYMFCAGYSDGSKDSCKGDSGGPHATHYRGTWYLTGIVSWGQGCATVGFFGVYTRVSQYIEWLQKLMRSEPRPGVLLRAPFP | 5.11e+07 M⁻¹ s⁻¹ |
| FVIIa variant G318N (enzyme) ANAFLEELRPGSLERECKEEQCSFEEAREIFKDAERTKLFWISYSDGDQCASSPCQNGGSCKDQLQSYICFCLPAFEGRNCETHKDDQLICVNENGGCEQYCSDHTGTKRSCRCHEGYSLLADGVSCTPTVEYPCGKIPILEKRNASKPQGRIVGGKVCPKGECPWQVLLLVNGAQLCGGTLINTIWVVSAAHCFDKIKNWRNLIAVLGEHDLSEHDGDEQSRRVAQVIIPSTYVPGTTNHDIALLRLHQPVVLTDHVVPLCLPERTFSERTLAFVRFSLVSGWGQLLDRGATALELMVLNVPRLMTQDCLQQSRKVNDSPNITEYMFCAGYSDGSKDSCKGDSGGPHATHYRGTWYLTGIVSWGQGCATVGHFGVYTRVSQYIEWLQKLMRSEPRPGVLLRAPFP | 5.5e+07 M⁻¹ s⁻¹ |
| FVIIa variant Q366E (enzyme) ANAFLEELRPGSLERECKEEQCSFEEAREIFKDAERTKLFWISYSDGDQCASSPCQNGGSCKDQLQSYICFCLPAFEGRNCETHKDDQLICVNENGGCEQYCSDHTGTKRSCRCHEGYSLLADGVSCTPTVEYPCGKIPILEKRNASKPQGRIVGGKVCPKGECPWQVLLLVNGAQLCGGTLINTIWVVSAAHCFDKIKNWRNLIAVLGEHDLSEHDGDEQSRRVAQVIIPSTYVPGTTNHDIALLRLHQPVVLTDHVVPLCLPERTFSERTLAFVRFSLVSGWGQLLDRGATALELMVLNVPRLMTQDCLQQSRKVGDSPNITEYMFCAGYSDGSKDSCKGDSGGPHATHYRGTWYLTGIVSWGEGCATVGHFGVYTRVSQYIEWLQKLMRSEPRPGVLLRAPFP | 4.77e+07 M⁻¹ s⁻¹ |
| FVIIa variant Q366N (enzyme) ANAFLEELRPGSLERECKEEQCSFEEAREIFKDAERTKLFWISYSDGDQCASSPCQNGGSCKDQLQSYICFCLPAFEGRNCETHKDDQLICVNENGGCEQYCSDHTGTKRSCRCHEGYSLLADGVSCTPTVEYPCGKIPILEKRNASKPQGRIVGGKVCPKGECPWQVLLLVNGAQLCGGTLINTIWVVSAAHCFDKIKNWRNLIAVLGEHDLSEHDGDEQSRRVAQVIIPSTYVPGTTNHDIALLRLHQPVVLTDHVVPLCLPERTFSERTLAFVRFSLVSGWGQLLDRGATALELMVLNVPRLMTQDCLQQSRKVGDSPNITEYMFCAGYSDGSKDSCKGDSGGPHATHYRGTWYLTGIVSWGNGCATVGHFGVYTRVSQYIEWLQKLMRSEPRPGVLLRAPFP | 5.64e+07 M⁻¹ s⁻¹ |
| FVIIa variant Q366S (enzyme) ANAFLEELRPGSLERECKEEQCSFEEAREIFKDAERTKLFWISYSDGDQCASSPCQNGGSCKDQLQSYICFCLPAFEGRNCETHKDDQLICVNENGGCEQYCSDHTGTKRSCRCHEGYSLLADGVSCTPTVEYPCGKIPILEKRNASKPQGRIVGGKVCPKGECPWQVLLLVNGAQLCGGTLINTIWVVSAAHCFDKIKNWRNLIAVLGEHDLSEHDGDEQSRRVAQVIIPSTYVPGTTNHDIALLRLHQPVVLTDHVVPLCLPERTFSERTLAFVRFSLVSGWGQLLDRGATALELMVLNVPRLMTQDCLQQSRKVGDSPNITEYMFCAGYSDGSKDSCKGDSGGPHATHYRGTWYLTGIVSWGSGCATVGHFGVYTRVSQYIEWLQKLMRSEPRPGVLLRAPFP | 2.7e+07 M⁻¹ s⁻¹ |
| FVIIa variant H373A (enzyme) ANAFLEELRPGSLERECKEEQCSFEEAREIFKDAERTKLFWISYSDGDQCASSPCQNGGSCKDQLQSYICFCLPAFEGRNCETHKDDQLICVNENGGCEQYCSDHTGTKRSCRCHEGYSLLADGVSCTPTVEYPCGKIPILEKRNASKPQGRIVGGKVCPKGECPWQVLLLVNGAQLCGGTLINTIWVVSAAHCFDKIKNWRNLIAVLGEHDLSEHDGDEQSRRVAQVIIPSTYVPGTTNHDIALLRLHQPVVLTDHVVPLCLPERTFSERTLAFVRFSLVSGWGQLLDRGATALELMVLNVPRLMTQDCLQQSRKVGDSPNITEYMFCAGYSDGSKDSCKGDSGGPHATHYRGTWYLTGIVSWGQGCATVGAFGVYTRVSQYIEWLQKLMRSEPRPGVLLRAPFP | 3.11e+07 M⁻¹ s⁻¹ |
| FVIIa variant E394N/P395A/R396S (enzyme) ANAFLEELRPGSLERECKEEQCSFEEAREIFKDAERTKLFWISYSDGDQCASSPCQNGGSCKDQLQSYICFCLPAFEGRNCETHKDDQLICVNENGGCEQYCSDHTGTKRSCRCHEGYSLLADGVSCTPTVEYPCGKIPILEKRNASKPQGRIVGGKVCPKGECPWQVLLLVNGAQLCGGTLINTIWVVSAAHCFDKIKNWRNLIAVLGEHDLSEHDGDEQSRRVAQVIIPSTYVPGTTNHDIALLRLHQPVVLTDHVVPLCLPERTFSERTLAFVRFSLVSGWGQLLDRGATALELMVLNVPRLMTQDCLQQSRKVGDSPNITEYMFCAGYSDGSKDSCKGDSGGPHATHYRGTWYLTGIVSWGQGCATVGHFGVYTRVSQYIEWLQKLMRSNASPGVLLRAPFP | 5.32e+07 M⁻¹ s⁻¹ |
| FVIIa variant Q366D (enzyme) ANAFLEELRPGSLERECKEEQCSFEEAREIFKDAERTKLFWISYSDGDQCASSPCQNGGSCKDQLQSYICFCLPAFEGRNCETHKDDQLICVNENGGCEQYCSDHTGTKRSCRCHEGYSLLADGVSCTPTVEYPCGKIPILEKRNASKPQGRIVGGKVCPKGECPWQVLLLVNGAQLCGGTLINTIWVVSAAHCFDKIKNWRNLIAVLGEHDLSEHDGDEQSRRVAQVIIPSTYVPGTTNHDIALLRLHQPVVLTDHVVPLCLPERTFSERTLAFVRFSLVSGWGQLLDRGATALELMVLNVPRLMTQDCLQQSRKVGDSPNITEYMFCAGYSDGSKDSCKGDSGGPHATHYRGTWYLTGIVSWGDGCATVGHFGVYTRVSQYIEWLQKLMRSEPRPGVLLRAPFP | 1.88e+07 M⁻¹ s⁻¹ |
| FVIIa variant Q366T (enzyme) ANAFLEELRPGSLERECKEEQCSFEEAREIFKDAERTKLFWISYSDGDQCASSPCQNGGSCKDQLQSYICFCLPAFEGRNCETHKDDQLICVNENGGCEQYCSDHTGTKRSCRCHEGYSLLADGVSCTPTVEYPCGKIPILEKRNASKPQGRIVGGKVCPKGECPWQVLLLVNGAQLCGGTLINTIWVVSAAHCFDKIKNWRNLIAVLGEHDLSEHDGDEQSRRVAQVIIPSTYVPGTTNHDIALLRLHQPVVLTDHVVPLCLPERTFSERTLAFVRFSLVSGWGQLLDRGATALELMVLNVPRLMTQDCLQQSRKVGDSPNITEYMFCAGYSDGSKDSCKGDSGGPHATHYRGTWYLTGIVSWGTGCATVGHFGVYTRVSQYIEWLQKLMRSEPRPGVLLRAPFP | 3.42e+07 M⁻¹ s⁻¹ |
| FVIIa variant A292N/A294S (enzyme) ANAFLEELRPGSLERECKEEQCSFEEAREIFKDAERTKLFWISYSDGDQCASSPCQNGGSCKDQLQSYICFCLPAFEGRNCETHKDDQLICVNENGGCEQYCSDHTGTKRSCRCHEGYSLLADGVSCTPTVEYPCGKIPILEKRNASKPQGRIVGGKVCPKGECPWQVLLLVNGAQLCGGTLINTIWVVSAAHCFDKIKNWRNLIAVLGEHDLSEHDGDEQSRRVAQVIIPSTYVPGTTNHDIALLRLHQPVVLTDHVVPLCLPERTFSERTLAFVRFSLVSGWGQLLDRGNTSLELMVLNVPRLMTQDCLQQSRKVGDSPNITEYMFCAGYSDGSKDSCKGDSGGPHATHYRGTWYLTGIVSWGQGCATVGHFGVYTRVSQYIEWLQKLMRSEPRPGVLLRAPFP | 0 M⁻¹ s⁻¹ |

Next, values leading:

| kcat/KM, TF-Dependent Indirect Assay | Binder |
| --- | --- |
| 6.59e+07 M⁻¹ s⁻¹ | FVIIa variant Q366V (enzyme) ANAFLEELRPGSLERECKEEQCSFEEAREIFKDAERTKLFWISYSDGDQCASSPCQNGGSCKDQLQSYICFCLPAFEGRNCETHKDDQLICVNENGGCEQYCSDHTGTKRSCRCHEGYSLLADGVSCTPTVEYPCGKIPILEKRNASKPQGRIVGGKVCPKGECPWQVLLLVNGAQLCGGTLINTIWVVSAAHCFDKIKNWRNLIAVLGEHDLSEHDGDEQSRRVAQVIIPSTYVPGTTNHDIALLRLHQPVVLTDHVVPLCLPERTFSERTLAFVRFSLVSGWGQLLDRGATALELMVLNVPRLMTQDCLQQSRKVGDSPNITEYMFCAGYSDGSKDSCKGDSGGPHATHYRGTWYLTGIVSWGVGCATVGHFGVYTRVSQYIEWLQKLMRSEPRPGVLLRAPFP |
| 4.66e+07 M⁻¹ s⁻¹ | FVIIa variant S52A (enzyme) ANAFLEELRPGSLERECKEEQCSFEEAREIFKDAERTKLFWISYSDGDQCAASPCQNGGSCKDQLQSYICFCLPAFEGRNCETHKDDQLICVNENGGCEQYCSDHTGTKRSCRCHEGYSLLADGVSCTPTVEYPCGKIPILEKRNASKPQGRIVGGKVCPKGECPWQVLLLVNGAQLCGGTLINTIWVVSAAHCFDKIKNWRNLIAVLGEHDLSEHDGDEQSRRVAQVIIPSTYVPGTTNHDIALLRLHQPVVLTDHVVPLCLPERTFSERTLAFVRFSLVSGWGQLLDRGATALELMVLNVPRLMTQDCLQQSRKVGDSPNITEYMFCAGYSDGSKDSCKGDSGGPHATHYRGTWYLTGIVSWGQGCATVGHFGVYTRVSQYIEWLQKLMRSEPRPGVLLRAPFP |
| 5.15e+07 M⁻¹ s⁻¹ | FVIIa variant S60A (enzyme) ANAFLEELRPGSLERECKEEQCSFEEAREIFKDAERTKLFWISYSDGDQCASSPCQNGGACKDQLQSYICFCLPAFEGRNCETHKDDQLICVNENGGCEQYCSDHTGTKRSCRCHEGYSLLADGVSCTPTVEYPCGKIPILEKRNASKPQGRIVGGKVCPKGECPWQVLLLVNGAQLCGGTLINTIWVVSAAHCFDKIKNWRNLIAVLGEHDLSEHDGDEQSRRVAQVIIPSTYVPGTTNHDIALLRLHQPVVLTDHVVPLCLPERTFSERTLAFVRFSLVSGWGQLLDRGATALELMVLNVPRLMTQDCLQQSRKVGDSPNITEYMFCAGYSDGSKDSCKGDSGGPHATHYRGTWYLTGIVSWGQGCATVGHFGVYTRVSQYIEWLQKLMRSEPRPGVLLRAPFP |
| 2.57e+07 M⁻¹ s⁻¹ | FVIIa variant R202S (enzyme) ANAFLEELRPGSLERECKEEQCSFEEAREIFKDAERTKLFWISYSDGDQCASSPCQNGGSCKDQLQSYICFCLPAFEGRNCETHKDDQLICVNENGGCEQYCSDHTGTKRSCRCHEGYSLLADGVSCTPTVEYPCGKIPILEKRNASKPQGRIVGGKVCPKGECPWQVLLLVNGAQLCGGTLINTIWVVSAAHCFDKIKNWSNLIAVLGEHDLSEHDGDEQSRRVAQVIIPSTYVPGTTNHDIALLRLHQPVVLTDHVVPLCLPERTFSERTLAFVRFSLVSGWGQLLDRGATALELMVLNVPRLMTQDCLQQSRKVGDSPNITEYMFCAGYSDGSKDSCKGDSGGPHATHYRGTWYLTGIVSWGQGCATVGHFGVYTRVSQYIEWLQKLMRSEPRPGVLLRAPFP |
